Laboratory results as given in patent US20030157712A1, “Methods for determining cell responses through EphB receptors” (priority 1997, published 2003).

T1: EphB1 (Homo sapiens, UniProt P54762)
T1 construct: Ligand stimulation and immunoprecipitation of endogenous EphB receptors; endogenous in cells; host or cells: HRMEC (human); P19 (murine teratocarcinoma) in part of the results
T1 sequence (P54762 18-984): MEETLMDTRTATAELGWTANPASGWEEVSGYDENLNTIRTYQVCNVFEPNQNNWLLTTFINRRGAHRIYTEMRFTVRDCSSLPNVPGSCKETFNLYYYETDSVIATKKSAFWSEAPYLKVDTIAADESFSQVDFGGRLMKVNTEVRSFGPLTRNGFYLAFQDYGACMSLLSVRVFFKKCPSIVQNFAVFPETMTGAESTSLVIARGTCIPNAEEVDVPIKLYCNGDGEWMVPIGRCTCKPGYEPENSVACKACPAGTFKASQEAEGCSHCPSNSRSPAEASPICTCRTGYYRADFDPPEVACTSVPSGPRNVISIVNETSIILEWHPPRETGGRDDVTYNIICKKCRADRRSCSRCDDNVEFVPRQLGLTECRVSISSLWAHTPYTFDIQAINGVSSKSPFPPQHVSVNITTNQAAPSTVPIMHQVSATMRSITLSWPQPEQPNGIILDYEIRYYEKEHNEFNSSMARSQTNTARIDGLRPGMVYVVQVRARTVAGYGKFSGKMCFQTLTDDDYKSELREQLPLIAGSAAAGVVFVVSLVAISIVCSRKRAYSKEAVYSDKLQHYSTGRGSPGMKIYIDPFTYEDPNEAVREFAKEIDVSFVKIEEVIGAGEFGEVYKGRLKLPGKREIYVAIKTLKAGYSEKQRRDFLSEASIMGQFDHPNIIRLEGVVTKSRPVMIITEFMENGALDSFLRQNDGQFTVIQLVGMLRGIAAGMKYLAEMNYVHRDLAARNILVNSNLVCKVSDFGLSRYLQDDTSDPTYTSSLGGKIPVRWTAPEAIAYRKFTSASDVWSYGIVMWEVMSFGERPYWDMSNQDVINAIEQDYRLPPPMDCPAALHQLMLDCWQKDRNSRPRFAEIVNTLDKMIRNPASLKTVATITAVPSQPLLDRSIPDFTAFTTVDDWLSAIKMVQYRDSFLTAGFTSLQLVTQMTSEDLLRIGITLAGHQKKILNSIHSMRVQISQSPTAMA

B1: ephrin-A1: GPI-linked membrane protein, primary ligand for EphA2 (Eck) (protein)
chain: DRHTVFWNSSNPKFRNEDYTIHVQLNDYVDIICPHYEDHSVADAAMEQYILYLVEHEEYQLCQPQSKDQVRWQCNRPSAKHGPEKLSEKFQRFTPFTLGKEFKEGHSYYYISKPIHQHEDRCLRLKVTVSGKITHSPQAHDNPQEKRLAADDPEVRVLHSIGHS
B2: Ephrin-B1: transmembrane ligand of EphB subclass receptors (protein)
chain: LAKNLEPVSWSSLNPKFLSGKGLVIYPKIGDKLDIICPRAEAGRPYEYYKLYLVRPEQAAACSTVLDPNVLVTCNRPEQEIRFTIKFQEFSPNYMGLEFKKHHDYYITSTSNGSLEGLENREGGVCRTRTMKIIMKVGQDPNAVTPEQLTTSRPSKEADNTVKMATQAPGSRGSLGDSDGKHETVNQEEKSGPGASGGSSGDPDGFFNSK

What was measured:
HUVEC [1] = conditions: background art; cited from earlier work
HRMEC [2] = conditions: background art; cited from earlier work
HRMEC [3] = assay: Endothelial assembly into capillary-like structures (HRMEC); type: cell-based, human; conditions: Matrigel-coated surfaces, defined medium; vascular bed comparison
Description: Endothelial assembly into capillary-like structures. Twelve well plates (Falcon) were coated with thin layers of Matrigel. HRMEC were plated at a density of 4×10^4 cells/well in DME containing 1% fetal bovine serum. Indicated agonists, control peptides, alone, or in combination with the EphB1/Fc antagonist (1000 ng ml^−1) (FIG. 5) were added at the time of plating. Cells were incubated at 37° C. for 8 h and photographed using phase microscopy (magnification 100×) (Diaphot-TMD, Nikon).

HUVEC [4] = assay: Two dimensional capillary-like assembly assay (HUVEC); type: cell-based, human; conditions: Matrigel-coated surfaces, defined medium; vascular bed comparison
Description: (§1) For these studies, HRMEC or HUVEC were plated on Matrigel-coated surfaces in defined medium in a two dimensional capillary-like assembly assay. Ephrin-B1 promoted capillary-like assembly of HRMEC, but not HUVEC, while ephrin-A1 promoted assembly of HUVEC but not HRMEC, in identical media at concentrations appropriate for their respective affinities for EphB1 and EphA2. In each cell type, ephrin-B1 and ephrin-A1 promoted tyrosine phosphorylation of 130 kDa EphB1 and EphA2, both of which are expressed in each system.

EphA2 = molecular target: T2, EphA2 (Homo sapiens, UniProt P29317); assay: EphA2 tyrosine phosphorylation in endothelial cells; type: cell-based; conditions: in each cell type (HRMEC, HUVEC)
T2 construct: 130 kDa EphB1 and EphA2, both of which are expressed in each system; endogenous in cells; host or cells: HRMEC and HUVEC
Description: as §1

αvβ3 integrin = assay: Surface biotinylation and integrin immunoprecipitation (endothelial cells); type: cell-based, human; conditions: 60 min on coated dishes
Description: (§2) Surface biotinylation and integrin immunoprecipitation. To determine if surface integrin expression was altered by transfection and/or exposure to ephrinB1/Fc, cells were biotinylated for 30 min at 4° C. with 0.5 mg/ml Sulfo-NHS-LC-Biotin (Pierce, Rockford, Ill.) before plating onto 60 mm dishes coated with nitrocellulose, fibrinogen and EphrinB1/Fc. After a 60 min incubation at 37° C., cells were harvested in WG buffer (15) and immunoprecipitation performed with 2 ug of the integrin antibodies used in the competition experiments. After SDS-PAGE (non-reducing conditions) and Western blotting, biotinylated proteins were detected by enhanced chemiluminescence using ECL Western Blotting Detection (Amersham).

EphB1 = molecular target: T1, EphB1; assay: EphB1 immunoprecipitation and phosphotyrosine immunoblot; type: cell-based; conditions: in each cell type (HRMEC, HUVEC)
HEK293 cells = assay: Solid phase cell attachment assay (HEK293); type: cell-based, human
Description: Cell culture and transfection. Human embryonic kidney cells, HEK293, were passaged in minimum essential medium (Life Technologies) supplemented with 10% fetal bovine serum (Hyclone Laboratories, Logan, Utah). HRMEC were cultured as described (12). HEK293 cells were transfected with Lipofectamine Plus (Life Technologies) as described by the manufacturer. The expression constructs pSRα-hEphB1-HA, pSRα-hEphB1-HA-K652R, pSRα-hEphB1-HA-Y596F and pSRα-hEphB1-HA-Y929F have been described previously (45,46). Cell attachment assays were performed 48 hours after transfection.
Solid phase cell attachment assays. Forty-eight-well plates (Falcon) were coated with a layer of nitrocellulose (Schleicher & Schuell) and allowed to air dry as described (47). Coated wells were incubated overnight at 4° C. with PBS containing matrix proteins at the indicated concentrations alone (no addition, NA) or in combination with dimeric EphrinB1/Fc. Two hours prior to assay, wells were washed twice then blocked at 37° C. with 1% BSA. Serum starved cells were harvested in 2 mM EDTA in PBS (HEK293) or recovered by trypsinization (HRMEC), washed twice in serum free medium containing 1% BSA, then plated at a density of 0.7-1×10^5 cells per well. […] Adherent cells were fixed with 2% glutaraldehyde, stained with 0.5% crystal violet (in EtOH), and quantified by OD reading at 570 nm. […]

α5β1 integrin = assay: Surface biotinylation and integrin immunoprecipitation (HEK293); type: cell-based, human; conditions: 60 min on coated dishes
Description: as §2

| Molecule | capillary-like assembly of HUVEC (reference 8) (HUVEC [1]) | assembly of HRMEC into capillary-like structures (reference 8) (HRMEC [2]) | capillary-like assembly of HRMEC (HRMEC [3]) | capillary-like assembly of HUVEC (HUVEC [4]) | tyrosine phosphorylation of 130 kDa EphA2 (EphA2) | surface expression of endothelial αvβ3 integrin (αvβ3 integrin) | tyrosine phosphorylation of 130 kDa EphB1 (EphB1) | attachment to fibrinogen of HEK293 cells transiently expressing EphB1 (HEK293 cells; 48 hours after transfection) | attachment to fibrinogen or RGD peptide of untransfected HEK293 cells (HEK293 cells; basal conditions, no endogenous EphB1 or EphB2) | surface expression of HEK293 α5β1 integrin (α5β1 integrin) |
| --- | --- | --- | --- | --- | --- | --- | --- | --- | --- | --- |
| B1 | promotes | no capillary-assembly activity | not | promoted | promoted |  |  |  |  |  |
| B2 | not responsive | promotes | promoted | not |  | did not increase | promoted | increases in attachment | no ephrin-B1 dependent change | did not increase |
